Assay results published in patent US10442866 (BEIJING MABWORKS BIOTECH, dated 2019).
Changes are numbered by the printed parent chain.

T1: rhesus OX40 expressed on HEK293A cells (rhesus, UniProt P43489 29-277 (human entry))
T1 construct: also called HEK293A/rhOX40; HEK293A/rhesusOX40 cells
T1 chain: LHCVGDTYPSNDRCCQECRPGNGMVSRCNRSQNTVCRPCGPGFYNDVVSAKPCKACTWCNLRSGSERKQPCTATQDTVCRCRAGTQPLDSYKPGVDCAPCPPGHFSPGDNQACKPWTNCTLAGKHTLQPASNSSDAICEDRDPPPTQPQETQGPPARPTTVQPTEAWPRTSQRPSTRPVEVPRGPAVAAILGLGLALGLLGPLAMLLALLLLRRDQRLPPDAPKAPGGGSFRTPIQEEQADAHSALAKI

T2: recombinant human OX40-his (Sino Biological, Cat#:10481-H03H) (human, UniProt P43489 29-214)
T2 construct: bought protein; also called hOX40-his; not shown: His tag
T2 sequence: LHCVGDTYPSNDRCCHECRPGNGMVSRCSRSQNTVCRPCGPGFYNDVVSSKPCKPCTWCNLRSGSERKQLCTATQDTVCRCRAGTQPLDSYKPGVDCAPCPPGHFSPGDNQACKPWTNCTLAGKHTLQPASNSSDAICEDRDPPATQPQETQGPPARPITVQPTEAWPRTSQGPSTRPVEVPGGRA

T3: human NGFR (TNFRSF16, Sino Biological, Cat#: 13184-H08H) (human, UniProt P08138 29-250)
T3 construct: bought recombinant protein
T3 sequence (looked up): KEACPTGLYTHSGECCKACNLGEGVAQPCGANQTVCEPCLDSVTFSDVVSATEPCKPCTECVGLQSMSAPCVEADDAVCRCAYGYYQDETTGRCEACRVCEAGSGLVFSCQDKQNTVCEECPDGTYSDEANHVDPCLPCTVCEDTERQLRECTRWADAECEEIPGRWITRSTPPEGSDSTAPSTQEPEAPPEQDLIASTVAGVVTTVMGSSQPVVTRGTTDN

B1: 68C8-VH2VL3 (antibody, human IgG1, kappa, V domains shown)
VH: QVQLVQSGAEVKKPGASVKVSCKVSGDTFTSYWITWVRQRPGKGLEWMGDIHPGSGSTNNNEKFKNRVTMTVDTSTDTAYMELSSLRSEDTAVYYCATLRPYYFVYWGQGTLVTVSS
VL: DIQMTQSPSSLSASVGDRVTITCRASQDISNYLNWYQQKPGKTVKLLIYYTSRLLSGVPSRFSGSGSGTDYTLTISSLQPEDFATYFCQQGNTLPLTFGQGTRLEIKR
notes: humanized; also called 68C8-H2L3; 68C8H2L3
B2: 71H8-VH2VL3 (antibody, human IgG1, kappa, V domains shown)
VH: B1 VH with D27Y, H52Y, N60Q, N66S
VL: B1 VL
notes: humanized; also called 71H8-H2L3; 71H8H2L3

Assays:
[1] = target: T1, rhesus OX40 expressed on HEK293A cells; experiment: FACS on HEK293A/rhesus OX40 cells, MFI (panel without title; monkey OX40 by the legend)
Experimental: Briefly, 10^5 HEK293A cells were seeded into each well of the 96-well plates and serially diluted anti-OX40 antibodies were added to the plates. After incubated at 4° C. for 1 hour, plates were washed 3 times with PBST. Then, an APC coupled Goat Anti-Mouse IgG (BioLegen, US, Cat#: 405308) diluted 500× was added to the plates. After incubation at 4° C. for 1 hour, the plates were washed with PBS for 3 times and then cell fluorescence was monitored using a FACS machine (BD).
Example 15 Humanized Anti-OX40 Antibodies Bound to Human or Rhesus OX40 Expressed on HEK293A Cells The humanized anti-OX40 antibodies were also tested for their ability of binding to HEK293A/huOX40 cells or HEK293A/rhOX40 cells, following the FACS analysis protocol as described in Example 5.

[2] = target: truncant 2-mFc (containing CRD/3/4); experiment: ELISA with recombinant mFc-tagged OX40 ECD proteins, OD450
truncant 2-mFc (containing CRD/3/4), sequence (chain, as listed by the source limits assumed): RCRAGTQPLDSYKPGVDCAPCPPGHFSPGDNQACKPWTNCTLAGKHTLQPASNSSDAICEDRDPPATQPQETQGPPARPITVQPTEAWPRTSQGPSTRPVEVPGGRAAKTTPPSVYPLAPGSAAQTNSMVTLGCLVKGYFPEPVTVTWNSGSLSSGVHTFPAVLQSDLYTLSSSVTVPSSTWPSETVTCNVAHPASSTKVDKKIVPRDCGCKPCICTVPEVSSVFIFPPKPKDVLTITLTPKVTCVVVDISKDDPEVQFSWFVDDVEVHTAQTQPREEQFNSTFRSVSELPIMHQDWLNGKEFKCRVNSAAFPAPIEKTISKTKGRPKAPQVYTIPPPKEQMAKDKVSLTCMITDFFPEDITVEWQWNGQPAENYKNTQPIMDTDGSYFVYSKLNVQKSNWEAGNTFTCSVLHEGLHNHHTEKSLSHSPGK
Description: (§1) There are four individual cysteine enriched domains (CRD) in OX40 extracellular domain (ECD), namely CRD1, CRD2, CRD3 and CRD4, respectively. Based on the structure of OX40, four recombinant OX40 proteins were generated, i.e., the full-length OX40 ECD (containing CRD1/2/3/4) (SEQ ID NO.: 38), truncant 1-mFc (containing CRD2/3/4) (SEQ ID NO.: 39), truncant 2-mFc (containing CRD/3/4) (SEQ ID NO.: 40) and truncant 3-mFc (containing CRD/4) (SEQ ID NO.: 41). All the recombinant proteins were linked with a signal peptide (SEQ ID NO.: 42) at the N terminus for protein secretion and a mFc-tag (SEQ ID NO.: 43) at the C terminus for ELISA assay. DNA sequences were synthesized and subcloned into pcDNA3.1 vector. The expression and purification of the recombinant proteins were carried out according to the protocols in Example 10. ELISA assay was performed to assess binding capacity of mAbs to recombinant OX40 proteins, following the protocol in Example 2.

[3] = target: truncant 1-mFc (containing CRD2/3/4); experiment: as above
truncant 1-mFc (containing CRD2/3/4), sequence (chain, as listed by the source limits assumed): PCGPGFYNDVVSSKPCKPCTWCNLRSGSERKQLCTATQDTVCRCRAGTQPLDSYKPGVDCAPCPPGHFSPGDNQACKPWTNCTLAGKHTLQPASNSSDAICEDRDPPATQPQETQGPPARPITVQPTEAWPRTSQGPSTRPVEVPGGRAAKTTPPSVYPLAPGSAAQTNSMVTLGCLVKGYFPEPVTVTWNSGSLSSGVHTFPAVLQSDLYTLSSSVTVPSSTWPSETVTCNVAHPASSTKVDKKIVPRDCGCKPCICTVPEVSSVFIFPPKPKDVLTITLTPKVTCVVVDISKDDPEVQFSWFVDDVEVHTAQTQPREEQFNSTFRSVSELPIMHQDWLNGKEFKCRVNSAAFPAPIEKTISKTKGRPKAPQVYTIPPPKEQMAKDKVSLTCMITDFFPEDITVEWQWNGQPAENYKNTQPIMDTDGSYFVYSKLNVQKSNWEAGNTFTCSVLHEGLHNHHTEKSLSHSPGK
Description: as §1

[4] = target: full length OX40 ECD-mFc (containing CRD1/2/3/4); experiment: as above
full length OX40 ECD-mFc (containing CRD1/2/3/4), sequence (chain, as listed by the source limits assumed): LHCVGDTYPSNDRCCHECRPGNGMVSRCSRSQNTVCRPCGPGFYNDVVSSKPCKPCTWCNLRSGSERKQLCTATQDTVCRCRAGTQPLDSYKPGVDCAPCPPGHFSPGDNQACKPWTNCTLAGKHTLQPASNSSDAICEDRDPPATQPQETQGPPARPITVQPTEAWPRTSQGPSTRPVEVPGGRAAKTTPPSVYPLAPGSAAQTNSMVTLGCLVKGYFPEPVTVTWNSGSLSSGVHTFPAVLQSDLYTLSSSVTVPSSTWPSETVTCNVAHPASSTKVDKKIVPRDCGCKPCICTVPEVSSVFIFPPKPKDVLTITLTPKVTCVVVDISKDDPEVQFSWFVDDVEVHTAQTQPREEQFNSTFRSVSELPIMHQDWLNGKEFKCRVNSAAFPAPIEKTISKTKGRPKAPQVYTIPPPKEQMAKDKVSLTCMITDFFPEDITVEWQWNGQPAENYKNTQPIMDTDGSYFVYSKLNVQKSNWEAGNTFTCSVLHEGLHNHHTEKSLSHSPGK
Description: as §1

[5] = target: truncant 3-mFc (containing CRD/4); experiment: as above
truncant 3-mFc (containing CRD/4), sequence (chain, as listed by the source limits assumed): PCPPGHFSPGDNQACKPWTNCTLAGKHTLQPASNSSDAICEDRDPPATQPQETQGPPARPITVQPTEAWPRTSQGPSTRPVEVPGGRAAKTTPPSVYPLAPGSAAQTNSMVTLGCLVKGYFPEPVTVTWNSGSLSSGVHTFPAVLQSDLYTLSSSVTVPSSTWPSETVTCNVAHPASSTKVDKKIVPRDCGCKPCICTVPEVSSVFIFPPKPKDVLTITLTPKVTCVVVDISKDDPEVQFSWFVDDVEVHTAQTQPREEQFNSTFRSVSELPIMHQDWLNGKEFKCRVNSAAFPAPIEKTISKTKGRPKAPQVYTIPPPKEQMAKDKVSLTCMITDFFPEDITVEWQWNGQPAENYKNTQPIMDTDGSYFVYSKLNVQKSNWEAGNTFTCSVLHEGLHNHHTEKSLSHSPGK
Description: as §1

[6] = target: T2, recombinant human OX40-his (Sino …); experiment: SPR Biacore 8K, OX40-His on chip, antibody injected
Experimental: SPR assays were used to determine the binding affinity of the chimetic or humanized anti-OX40 antibodies to human OX40 with the BIAcore™ 8K instrument (GE Life Sciences). Briefly, 100-200 response units (RU) of human OX40-His protein (Sino Biological, CN, Cat#:10481-H03H, Lot no.: MA08MA3003) were coupled to CM5 biosensor chips (Cat#: BR-1005-30, GE Life Sciences), followed by blocking of un-reacted groups with 1M ethanolamine. Serially diluted antibodies at concentrations ranging from 0.3 µM to 10 µM were injected into the SPR running buffer (HBS-EP buffer, pH7.4, GE Life Sciences; US; Cat#:BR-1006-69) at 30 µL/minute. The binding capacitity was calculated with the RUs of blank controls subtracted. The association rate (k_a) and dissociation rate (k_d) were calculated using the one-to-one Langmuir binding model (BIA Evaluation Software, GE Life Sciences). The equilibrium dissociation constant K_D was calculated as the k_d/k_a ratio.

[7] = target: T3, human NGFR (TNFRSF16, Sino Biological, …); experiment: ELISA on coated recombinant human TNFRSF protein, OD450
Experimental: ELISA assays were performed to determine the binding specificity of anti-OX40 antibodies to human OX40, in comparison to other human TNFRSF members with homologous amino acid sequences, following the protocol described in Example 2.

Binder	binding result [1]	binding result [2]	binding result [3]	binding result [4]	binding result [5]	Kd [6]	koff [6]	kon [6]	binding result [7]
B1	binds	binds	binds	binds	no binding	1.96 nM	0.000927 s⁻¹	473000 M⁻¹ s⁻¹	no binding (tested: about 10000 ng/mL (log about 4))
B2	binds	binds	binds	binds	no binding	4.57 nM	0.00198 s⁻¹	434000 M⁻¹ s⁻¹	no binding (tested: about 10000 ng/mL (log about 4))
